The numbers were not newly measured in publication PMC6994236, which cites them from elsewhere.

Data set [1] concerns the target PSD-95 PDZ3 (Rattus norvegicus) (UniProt P31016). Put plainly: surface plasmon resonance. A general note: In SPR one partner is held on a chip, and binding of the other changes the refractive index at the surface.
Data set [2] deals with PSD-95 PDZ1-3 (Rattus norvegicus) (UniProt P31016). Put plainly: surface plasmon resonance.

pKd: −log10 of the molar value.

Chain of PSD-95 PDZ1-3 (Rattus norvegicus) (P31016 61-393): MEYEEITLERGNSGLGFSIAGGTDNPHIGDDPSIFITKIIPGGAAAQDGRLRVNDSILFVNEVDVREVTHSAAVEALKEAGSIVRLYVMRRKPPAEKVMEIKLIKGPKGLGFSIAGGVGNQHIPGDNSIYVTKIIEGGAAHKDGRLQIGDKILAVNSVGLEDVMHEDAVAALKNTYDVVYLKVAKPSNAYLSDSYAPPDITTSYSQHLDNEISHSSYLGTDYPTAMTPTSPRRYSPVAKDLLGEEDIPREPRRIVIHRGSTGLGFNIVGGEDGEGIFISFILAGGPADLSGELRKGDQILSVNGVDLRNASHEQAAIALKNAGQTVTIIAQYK
Chain of PSD-95 PDZ3 (Rattus norvegicus) (P31016 310-396): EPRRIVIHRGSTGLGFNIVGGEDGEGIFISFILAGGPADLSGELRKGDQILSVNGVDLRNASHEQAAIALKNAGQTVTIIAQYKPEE

As for “synGAP lacking first 100 residues (from UniProt Q9QUH6)”, the pKd in data set [1] was 6.19; in data set [2], 8.30.

Broadly, the pKd is −log10 of the Kd, conventionally taken in molar units.
